Results on one molecule are retold here after article PMC10315472 (2023).

The assay has as its target wild-type SARS-CoV-2 Spike receptor-binding domain (SARS-CoV-2, UniProt P0DTC2 319-527). Description: SPR. In general terms: SPR reads the build-up and loss of mass on a sensor chip optically.

B1: (ΔGFG)AMSIN (peptide)
chain: CPWNAYECDRHCVSKGYTGGNCRGKIRQTCHCY
As a reminder, the koff is the first-order rate constant of dissociation. A high value points to fast dissociation. The molecule B1 registered a koff of 0.0223 s⁻¹.
